Biological target: Rabenosyn-5 (as printed for the GST pull-down of Figure 7)
Experiment: pull-down; GST-effector fusion protein on glutathione-Sepharose beads incubated with clarified lysate of transfected cells for 1 h at 4 °C; lysis buffer 20 mM Hepes pH 7.4, 100 mM NaCl, 5 mM MgCl2, 0.1% NP40, 10% glycerol, 1 mM DTT; washed 3 times with PBS-T (1% Triton X-100); immunoblot with anti-Myc or anti-Rab antibody, bands quantified with LI-COR Odyssey

Rab22 (from UniProt Q9UL26 1-194) (natural protein)
fold binding to Rabenosyn-5 relative to EEA1: 2 to 3 fold

— publication PMC9403361
